According to the Human Domainome abundance scans (Beltran et al. 2025):
± gives the uncertainty stated by the source.

B1: Zinc finger MYM-type protein 6, residues 427 to 504; numbered along this chain, O95789 (parent)
chain: KLKCQHCNHLFATKPELLFYKGKMFLFCGKNCSDEYKKKNKVVAMCDYCKLQKIIKETVRFSGVDKPFCSEVCKFLSA

Variants of: B1
Experiment: abundance fitness (aPCA) (normalised: wild type 0, dead -1); higher = more abundant; growth selection in yeast, the domain comes from the species named
Conditions: Homo sapiens

Abundance fitness of substitutions, site by site:
H6: M 0.033 ± 0.044, V -0.074 ± 0.03
Q5: W -0.206 ± 0.04, K -0.194 ± 0.27, I -0.156 ± 0.064, E -0.33 ± 0.054, R -0.226 ± 0.03, L -0.118 ± 0.039, T -0.113 ± 0.043, V -0.077 ± 0.029, G -0.041 ± 0.027, Y -0.057 ± 0.085, A -0.023 ± 0.031, P -0.204 ± 0.061, S -0.248 ± 0.053, D -0.405 ± 0.071
N8: C -0.015 ± 0.038, M -0.009 ± 0.047, W -0.154 ± 0.042, A 0.013 ± 0.032, Q 0.044 ± 0.04, H -0.117 ± 0.064, F -0.172 ± 0.07, V -0.088 ± 0.031, E 0.018 ± 0.038, I -0.168 ± 0.046, S 0.042 ± 0.036, L -0.015 ± 0.035, K 0.01 ± 0.043, T -0.067 ± 0.064, Y -0.264 ± 0.071, R -0.02 ± 0.031, P -0.129 ± 0.035
K1: A -0.276 ± 0.041, V -0.355 ± 0.039, E -0.104 ± 0.046, S -0.131 ± 0.076, F -0.697 ± 0.34, D -0.008 ± 0.055, G -0.229 ± 0.033, M -0.252 ± 0.05, W -0.536 ± 0.038, H -0.209 ± 0.067, Q -0.194 ± 0.14, C -0.147 ± 0.048, L -0.271 ± 0.047
F11: T 0.014 ± 0.039, W -0.207 ± 0.033, H -0.354 ± 0.088, D -0.339 ± 0.057, K -0.13 ± 0.064, I -0.25 ± 0.13, L -0.129 ± 0.035, S -0.094 ± 0.043, V 0.031 ± 0.032, M -0.134 ± 0.054, P -0.049 ± 0.037, G -0.171 ± 0.029, C -0.098 ± 0.048, R -0.198 ± 0.031
C7: K -0.451 ± 0.095, L -0.951 ± 0.075, P -1.07 ± 0.11, E -0.722 ± 0.066, Q -0.887 ± 0.071, S -0.823 ± 0.064, I -1.02 ± 0.48, H -0.575 ± 0.24, V -1.11 ± 0.084, G -0.442 ± 0.03, T -0.792 ± 0.089, F -0.845 ± 0.25, W -0.919 ± 0.074, M -0.76 ± 0.11, N -0.23 ± 0.12
A12: T -0.056 ± 0.043, S -0.072 ± 0.041, M -0.105 ± 0.047, C -0.096 ± 0.05, W -0.134 ± 0.036, Y -0.205 ± 0.08, V -0.223 ± 0.034, I 0.062 ± 0.19, H -0.132 ± 0.074, F -0.181 ± 0.053, N -0.218 ± 0.076, K 0.008 ± 0.049, P -0.131 ± 0.04, D -0.047 ± 0.033
E16: T -0.037 ± 0.046, N -0.26 ± 0.094, A -0.091 ± 0.031, K 0.002 ± 0.032, G -0.279 ± 0.031, R -0.102 ± 0.029, C -0.102 ± 0.045, H -0.307 ± 0.19, P -0.414 ± 0.045, V -0.109 ± 0.034, Q -0.03 ± 0.041, S -0.146 ± 0.043, L -0.139 ± 0.036, D -0.169 ± 0.12, M -0.14 ± 0.044
C4: G -0.772 ± 0.035, M -1.05 ± 0.4, L -0.698 ± 0.071, P -0.681 ± 0.14, H -0.649 ± 0.5, K -0.687 ± 0.098, S -0.702 ± 0.091, W -1.11 ± 0.08, R -0.877 ± 0.053, V -0.758 ± 0.045, A -0.74 ± 0.04, E -0.81 ± 0.067, D -0.879 ± 0.25
P15: Y -0.651 ± 0.2, A -0.075 ± 0.03, R -0.119 ± 0.029, F -0.478 ± 0.085, T -0.132 ± 0.045, S -0.119 ± 0.05, L -0.483 ± 0.05, E -0.083 ± 0.043, G -0.163 ± 0.029, I -0.412 ± 0.16, D -0.03 ± 0.041, W -0.534 ± 0.041, K -0.038 ± 0.039, V -0.37 ± 0.037, M -0.335 ± 0.056, Q -0.126 ± 0.049, H -0.213 ± 0.039
L10: K 0.017 ± 0.039, E 0.063 ± 0.04, P 0.034 ± 0.046, I -0.135 ± 0.11, S -0.066 ± 0.046, V -0.002 ± 0.029, R 0.063 ± 0.029, G 0.049 ± 0.028, F 0.107 ± 0.14, A 0.051 ± 0.033, D -0.002 ± 0.077, C -0.05 ± 0.09, Y -0.026 ± 0.053, T -0.085 ± 0.055, W 0.004 ± 0.033, Q 0.023 ± 0.04
T13: R -0.087 ± 0.028, I 0.031 ± 0.075, E -0.06 ± 0.04, L -0.176 ± 0.034, Q -0.093 ± 0.048, S -0.148 ± 0.052, C -0.201 ± 0.056, N -0.128 ± 0.092, Y -0.029 ± 0.073, D -0.146 ± 0.046, H -0.039 ± 0.052, W -0.162 ± 0.039, G -0.024 ± 0.029, A -0.074 ± 0.034, P -0.128 ± 0.044, V -0.098 ± 0.042, K -0.056 ± 0.051
